Assay results from paper PMC13044922, “Molecular structure and nickel-binding capacity of Proteus mirabilis UreE” (Acta Crystallographica Section D: Structural Biology, 2026).

Biological target: the molecule itself
Assay: SEC; HiLoad 16/600 Superdex 75, 20 mM HEPES pH 7.5, 100 mM NaCl with or without 1 mM EDTA, 277 K; elution volume compared with molecular weight

B1: PmUreE-ΔC17 (domain or fragment)
chain: MKKFTQIIDQQKALELTSTEKPKLTLCLTMDERTKSRLKVALSDGQEAGLFLPRGTVLKEGDILLSEEGDVVTIEAAKEQVSTVYSDDPLLLARVCYHLGNRHVPLQIEAGWCRYFHDHVLDDMARGLGATVVVGLEKYQPEPG
notes: UreE of Proteus mirabilis ATCC 12453 with a stop codon inserted after Gly144 (lacks the last 17 residues, the histidine-rich C-terminus); Made from the full-length construct of m1 by a stop codon after Gly144; also called PmUreE-ΔC17 truncation mutant; C-terminally truncated mutant of PmUreE; source: E. coli BL21 (DE3), purified (Ni-NTA, SEC)
stoichiometry N: 2

B2: Proteus mirabilis UreE (natural protein)
chain: MKKFTQIIDQQKALELTSTEKPKLTLCLTMDERTKSRLKVALSDGQEAGLFLPRGTVLKEGDILLSEEGDVVTIEAAKEQVSTVYSDDPLLLARVCYHLGNRHVPLQIEAGWCRYFHDHVLDDMARGLGATVVVGLEKYQPEPGAYGGSSGGHHHHHDHHH
notes: Cloned from strain ATCC 12453; In the crystal the models end at residue 147 (chain A) and 144 (chain B); the C-terminal tails are not resolved; also called PmUreE; full-length PmUreE
stoichiometry N: ~2
